# Source: publication PMC8867384 (Neuron, 2020)
# T1: Torpedo nicotinic acetylcholine receptor δ subunit (Tetronarce californica (formerly …, UniProt P02718 22-522, glycosylated (site not given)))
# T1 sequence (looked up): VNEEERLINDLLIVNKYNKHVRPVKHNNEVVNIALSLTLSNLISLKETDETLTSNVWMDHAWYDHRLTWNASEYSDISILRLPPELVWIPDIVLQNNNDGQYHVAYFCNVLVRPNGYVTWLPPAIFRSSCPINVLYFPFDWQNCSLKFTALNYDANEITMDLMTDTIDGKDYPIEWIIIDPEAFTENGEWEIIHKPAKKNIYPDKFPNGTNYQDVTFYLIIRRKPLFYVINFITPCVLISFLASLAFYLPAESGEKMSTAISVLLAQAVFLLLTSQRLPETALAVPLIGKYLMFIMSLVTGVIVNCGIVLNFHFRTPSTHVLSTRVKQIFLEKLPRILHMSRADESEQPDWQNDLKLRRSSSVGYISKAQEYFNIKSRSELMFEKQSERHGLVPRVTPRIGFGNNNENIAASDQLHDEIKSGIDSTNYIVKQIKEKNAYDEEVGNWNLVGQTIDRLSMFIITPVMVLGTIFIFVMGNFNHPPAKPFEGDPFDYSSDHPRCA
# T2: Torpedo nicotinic acetylcholine receptor γ subunit (Tetronarce californica (formerly …, UniProt P02714 18-506))
# T2 sequence (looked up): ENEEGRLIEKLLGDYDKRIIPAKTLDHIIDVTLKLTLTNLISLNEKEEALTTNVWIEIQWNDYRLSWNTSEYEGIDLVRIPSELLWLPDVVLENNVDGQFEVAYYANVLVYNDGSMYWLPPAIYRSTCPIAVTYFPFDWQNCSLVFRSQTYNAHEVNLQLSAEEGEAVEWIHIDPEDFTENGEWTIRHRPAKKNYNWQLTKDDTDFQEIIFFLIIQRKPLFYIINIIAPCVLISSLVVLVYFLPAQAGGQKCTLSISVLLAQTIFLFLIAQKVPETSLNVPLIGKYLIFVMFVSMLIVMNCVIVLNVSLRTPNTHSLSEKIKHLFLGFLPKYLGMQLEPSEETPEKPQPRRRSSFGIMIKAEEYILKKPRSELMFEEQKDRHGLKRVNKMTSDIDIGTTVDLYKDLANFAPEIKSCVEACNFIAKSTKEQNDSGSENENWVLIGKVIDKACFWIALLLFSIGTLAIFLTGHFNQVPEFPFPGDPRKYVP
# B1: α-bungarotoxin (natural protein)
# chain: IVCHTTATSPISAVTCPPGENLCYRKMWCDAFCSSRGKVVELGCAATCPSKKPYEEVTCCSTDKCNPHPKQRPG
# What was measured:
# Assay in all cases: cryo-EM structure
# [1] = target: native Torpedo nicotinic acetylcholine receptor (Tetronarce californica (formerly Torpedo californica)) (UniProt P02710)
# Sequence of native Torpedo nicotinic acetylcholine receptor (Tetronarce californica (formerly Torpedo californica)) (P02710 25-461, chain 1 of 2): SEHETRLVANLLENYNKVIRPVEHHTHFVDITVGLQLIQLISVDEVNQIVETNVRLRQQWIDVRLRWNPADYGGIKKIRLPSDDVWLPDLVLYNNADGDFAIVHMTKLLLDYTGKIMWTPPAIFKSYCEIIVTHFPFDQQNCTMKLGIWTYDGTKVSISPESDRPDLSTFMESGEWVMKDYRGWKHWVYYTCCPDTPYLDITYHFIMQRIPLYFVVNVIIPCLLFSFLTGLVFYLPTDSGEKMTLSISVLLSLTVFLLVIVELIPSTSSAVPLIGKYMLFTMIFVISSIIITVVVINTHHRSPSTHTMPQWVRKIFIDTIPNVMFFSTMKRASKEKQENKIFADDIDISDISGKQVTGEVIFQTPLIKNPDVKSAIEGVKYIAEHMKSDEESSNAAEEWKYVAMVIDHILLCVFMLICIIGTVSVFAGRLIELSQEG
# Sequence of native Torpedo nicotinic acetylcholine receptor (Tetronarce californica (formerly Torpedo californica)) (P02712 25-493, chain 2 of 2, further chain): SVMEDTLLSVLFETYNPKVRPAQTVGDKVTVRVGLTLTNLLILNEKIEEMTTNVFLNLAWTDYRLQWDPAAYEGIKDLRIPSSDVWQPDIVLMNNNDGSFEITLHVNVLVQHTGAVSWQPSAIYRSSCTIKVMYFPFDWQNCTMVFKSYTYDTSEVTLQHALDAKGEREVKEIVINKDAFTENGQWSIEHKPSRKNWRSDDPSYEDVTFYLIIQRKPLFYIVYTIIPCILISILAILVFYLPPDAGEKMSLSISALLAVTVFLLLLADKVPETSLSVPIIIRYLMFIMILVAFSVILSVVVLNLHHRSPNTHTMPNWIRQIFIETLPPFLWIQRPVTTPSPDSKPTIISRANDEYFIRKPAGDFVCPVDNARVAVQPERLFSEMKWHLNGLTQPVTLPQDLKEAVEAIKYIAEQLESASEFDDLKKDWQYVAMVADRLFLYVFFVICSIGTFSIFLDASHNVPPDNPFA
# [2] = target: T1, Torpedo nicotinic acetylcholine …
# [3] = target: T2, Torpedo nicotinic acetylcholine …
# [4] = target: Torpedo nicotinic acetylcholine receptor α subunit (Tetronarce californica (formerly …, UniProt P02710 25-461))
# Sequence of Torpedo nicotinic acetylcholine receptor α subunit (Tetronarce californica (P02710 25-461): as the sequence (P02710 25-461, chain 1 of 2) above
molecule,measurement,setting,value
α-bungarotoxin (from UniProt P60615 22-95) (natural protein),stoichiometry N,[1],2
B1,binding result,[2],binds
same,binding result,[3],binds
same,binding result,[4],binds
